Holding throughout (test): SPR
(SPR reads the build-up and loss of mass on a sensor chip optically.)

Assay [1] deals with NGL1-r1 mutant (human NGL1_(LRR–Ig) with the loop I binding region of NGL2) (human) (UniProt Q9HCJ2).
In assay [2] the target is mouse NGL3_(LRR–Ig) (mouse) (UniProt P0C192).
For another assay, the target named is T1, mouse NGL3_(LRR–Ig) (mouse, UniProt P0C192 39-455).
T1 sequence (looked up): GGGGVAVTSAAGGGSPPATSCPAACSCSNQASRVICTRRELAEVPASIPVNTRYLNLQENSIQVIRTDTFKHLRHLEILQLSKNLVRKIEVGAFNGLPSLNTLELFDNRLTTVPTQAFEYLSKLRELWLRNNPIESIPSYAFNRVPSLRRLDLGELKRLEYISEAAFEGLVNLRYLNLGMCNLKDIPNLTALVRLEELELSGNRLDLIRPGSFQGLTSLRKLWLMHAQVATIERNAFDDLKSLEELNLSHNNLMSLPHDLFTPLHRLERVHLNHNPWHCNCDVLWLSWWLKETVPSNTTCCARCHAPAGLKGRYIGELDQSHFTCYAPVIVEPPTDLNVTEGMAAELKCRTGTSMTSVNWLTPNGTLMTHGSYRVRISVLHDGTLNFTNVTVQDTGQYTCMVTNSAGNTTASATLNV

For “human NetrinG1_(Lam–EGF1/4), wild type (domain or fragment)”, the fold decrease of binding against WT NGL1 in assay [1] is above 10 fold. Moreover, the Kd (usually the free concentration of one partner at which half of the binding sites on the other are occupied at equilibrium, for simple one-to-one binding) in assay [2] is above 100 µM.

B1: human NetrinG2_(Lam–EGF1), wild type (domain or fragment, UniProt Q96CW9 18-345, looked up)
chain: DYDICKSWVTTDEGPTWEFYACQPKVMRLKDYVKVKVEPSGITCGDPPERFCSHENPYLCSNECDASNPDLAHPPRLMFDKEEEGLATYWQSITWSRYPSPLEANITLSWNKTVELTDDVVMTFEYGRPTVMVLEKSLDNGRTWQPYQFYAEDCMEAFGMSARRARDMSSSSAHRVLCTEEYSRWAGSKKEKHVRFEVRDRFAIFAGPDLRNMDNLYTRLESAKGLKEFFTLTDLRMRLLRPALGGTYVQRENLYKYFYAISNIEVIGRCKCNLHANLCSMREGSLQCECEHNTTGPDCGKCKKNFRTRSWRAGSYLPLPHGSPNACA
In the assay with mouse NGL3_(LRR–Ig), B1 gave a Kd above 100 µM.

These data come from publication PMC3230378 (The EMBO Journal, 2011).
